Measurements reported in the supplement of paper PMC5998384.

Key:
HeLa Kyoto [1] = experiment: solubility in G1/S (NP-40 vs SDS abundance) (log2 ratio); higher = more soluble; conditions: cell cycle stage: G1/S
HeLa Kyoto [2] = experiment: solubility change mitosis vs G1/S (difference of NP-40 vs SDS log2 ratios) (log2 ratio difference); higher = more soluble in mitosis
HeLa Kyoto [3] = experiment: melting temperature (median over replicates), in situ; higher = more thermally stable
HeLa Kyoto [4] = experiment: thermal stability score vs G1/S (z-score of summed log2 fold changes over temperatures); higher = more thermally stable than in G1/S
[5] = cell cycle stage: early G1 (4.5 h after nocodazole release)
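Throughout, for melting temperature (median over replicates), in situ: HeLa Kyoto cells synchronized by double thymidine or nocodazole block, proteins quantified by TMT10plex mass spectrometry, three independent biological replicates.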
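Throughout, for solubility change mitosis vs G1/S (difference of NP-40 vs SDS log2 ratios): synchronized HeLa Kyoto cells (double thymidine block for G1/S, nocodazole release for mitosis), protein amounts in NP-40 versus SDS lysates quantified by mass spectrometry, three biological replicates.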
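Throughout, for solubility in G1/S (NP-40 vs SDS abundance): HeLa Kyoto cells arrested at G1/S by double thymidine block, proteins quantified by TMT10plex mass spectrometry in mild NP-40 versus SDS extracts, three biological replicates.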
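Throughout, for thermal stability score vs G1/S (z-score of summed log2 fold changes over temperatures): synchronized HeLa Kyoto cells, proteins quantified by TMT10plex mass spectrometry, three biological replicates, mitosis taken 0.5 h after nocodazole release, G1/S directly after double thymidine block.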

Row | Sequence | solubility in G1/S (log2) (HeLa Kyoto [1]) | solubility change mitosis (log2) (HeLa Kyoto [2]) | melting temperature (HeLa Kyoto [3]; cell cycle stage: G1/S) | melting temperature (HeLa Kyoto [3]; cell cycle stage: mitosis) | thermal stability score (HeLa Kyoto [4]; [5]) | thermal stability score (HeLa Kyoto [4]; cell cycle stage: mitosis)
1 | MTSSGPGPRFLLLLPLLLPPAASASDRPRGRDPVNPEKLLVITVATAETEGYLRFLRSAEFFNYTVRTLGLGEEWRGGDVARTVGGGQKVRWLKKEMEKYADREDMIIMFVDSYDVILAGSPTELLKKFVQSGSRLLFSAESFCWPEWGLAEQYPEVGTGKRFLNSGGFIGFATTIHQIVRQWKYKDDDDDQLFYTRLYLDPGLREKLSLNLDHKSRIFQNLNGALDEVVLKFDRNRVRIRNVAYDTLPIVVHGNGPTKLQLNYLGNYVPNGWTPEGGCGFCNQDRRTLPGGQPPPRVFLAVFVEQPTPFLPRFLQRLLLLDYPPDRVTLFLHNNEVFHEPHIADSWPQLQDHFSAVKLVGPEEALSPGEARDMAMDLCRQDPECEFYFSLDADAVLTNLQTLRILIEENRKVIAPMLSRHGKLWSNFWGALSPDEYYARSEDYVELVQRKRVGVWNVPYISQAYVIRGDTLRMELPQRDVFSGSDTDPDMAFCKSFRDKGIFLHLSNQHEFGRLLATSRYDTEHLHPDLWQIFDNPVDWKEQYIHENYSRALEGEGIVEQPCPDVYWFPLLSEQMCDELVAEMEHYGQWSGGRHEDSRLAGGYENVPTVDIHMKQVGYEDQWLQLLRTYVGPMTESLFPGYHTKARAVMNFVVRYRPDEQPSLRPHHDSSTFTLNVALNHKGLDYEGGGCRFLRYDCVISSPRKGWALLHPGRLTHYHEGLPTTWGTRYIMVSFVDP [PLOD3] | -0.074 | 0.039 | 54.2 °C | 55 °C | 2.65 | 3.82
2 | MTTDEGAKNNEESPTATVAEQGEDITSKKDRGVLKIVKRVGNGEETPMIGDKVYVHYKGKLSNGKKFDSSHDRNEPFVFSLGKGQVIKAWDIGVATMKKGEICHLLCKPEYAYGSAGSLPKIPSNATLFFEIELLDFKGEDLFEDGGIIRRTKRKGEGYSNPNEGATVEIHLEGRCGGRMFDCRDVAFTVGEGEDHDIPIGIDKALEKMQREEQCILYLGPRYGFGEAGKPKFGIEPNAELIYEVTLKSFEKAKESWEMDTKEKLEQAAIVKEKGTVYFKGGKYMQAVIQYGKIVSWLEMEYGLSEKESKASESFLLAAFLNLAMCYLKLREYTKAVECCDKALGLDSANEKGLYRRGEAQLLMNEFESAKGDFEKVLEVNPQNKAARLQISMCQKKAKEHNERDRRIYANMFKKFAEQDAKEEANKAMGKKTSEGVTNEKGTDSQAMEEEKPEGHV [FKBP5] | 0.0823 | -0.124 | 46.7 °C | 48.6 °C | 2.48 | 4.23
3 | MTTFGAVAEWRLPSLRRATLWIPQWFAKKAIFNSPLEAAMAFPHLQQPSFLLASLKADSINKPFAQQCQDLVKVIEDFPAKELHTIFPWLVESIFGSLDGVLVGWNLRCLQGRVNPVEYSIVMEFLDPGGPMMKLVYKLQAEDYKFDFPVSYLPGPVKASIQECILPDSPLYHNKVQFTPTGGLGLNLALNPFEYYIFFFALSLITQKPLPVSLHVRTSDCAYFILVDRYLSWFLPTEGSVPPPLSSSPGGTSPSPPPRTPAIPFASYGLHHTSLLKRHISHQTSVNADPASHEIWRSETLLQVFVEMWLHHYSLEMYQKMQSPHAKLEVLHYRLSVSSALYSPAQPSLQALHAYQESFTPTEEHVLVVRLLLKHLHAFANSLKPEQASPSAHSHATSPLEEFKRAAVPRFVQQKLYLFLQHCFGHWPLDASFRAVLEMWLSYLQPWRYAPDKQAPGSDSQPRCVSEKWAPFVQENLLMYTKLFVGFLNRALRTDLVSPKHALMVFRVAKVFAQPNLAEMIQKGEQLFLEPELVIPHRQHRLFTAPTFTGSFLSPWPPAVTDASFKVKSHVYSLEGQDCKYTPMFGPEARTLVLRLAQLITQAKHTAKSISDQCAESPAGHSFLSWLGFSSMDTNGSYTANDLDEMGQDSVRKTDEYLEKALEYLRQIFRLSEAQLRQFTLALGTTQDENGKKQLPDCIVGEDGLILTPLGRYQIINGLRRFEIEYQGDPELQPIRSYEIASLVRTLFRLSSAINHRFAGQMAALCSRDDFLGSFCRYHLTEPGLASRHLLSPVGRRQVAGHTRGPRLSLRFLGSYRTLVSLLLAFFVASLFCVGPLPCTLLLTLGYVLYASAMTLLTERGKLHQP [SMPD4] | -0.601 | 0.185 | 51.7 °C | 50.2 °C | -0.683 | -0.99
4 | MTTLDDKLLGEKLQYYYSSSEDEDSDHEDKDRGRCAPASSSVPAEAELAGEGISVNTGPKGVINDWRRFKQLETEQREEQCREMERLIKKLSMTCRSHLDEEEEQQKQKDLQEKISGKMTLKEFAIMNEDQDDEEFLQQYRKQRMEEMRQQLHKGPQFKQVFEISSGEGFLDMIDKEQKSIVIMVHIYEDGIPGTEAMNGCMICLAAEYPAVKFCKVKSSVIGASSQFTRNALPALLIYKGGELIGNFVRVTDQLGDDFFAVDLEAFLQEFGLLPEKEVLVLTSVRNSATCHSEDSDLEID [PDCL] | -0.0669 | 0.0999 | – | 51.5 °C | 0.206 | -0.546
5 | MTTPANAQNASKTWELSLYELHRTPQEAIMDGTEIAVSPRSLHSELMCPICLDMLKNTMTTKECLHRFCSDCIVTALRSGNKECPTCRKKLVSKRSLRPDPNFDALISKIYPSREEYEAHQDRVLIRLSRLHNQQALSSSIEEGLRMQAMHRAQRVRRPIPGSDQTTTMSGGEGEPGEGEGDGEDVSSDSAPDSAPGPAPKRPRGGGAGGSSVGTGGGGTGGVGGGAGSEDSGDRGGTLGGGTLGPPSPPGAPSPPEPGGEIELVFRPHPLLVEKGEYCQTRYVKTTGNATVDHLSKYLALRIALERRQQQEAGEPGGPGGGASDTGGPDGCGGEGGGAGGGDGPEEPALPSLEGVSEKQYTIYIAPGGGAFTTLNGSLTLELVNEKFWKVSRPLELCYAPTKDPK [RING1] | -0.00962 | 0.222 | – | 50 °C | 0.769 | 1.05
6 | MTTSGALFPSLVPGSRGASNKYLVEFRAGKMSLKGTTVTPDKRKGLVYIQQTDDSLIHFCWKDRTSGNVEDDLIIFPDDCEFKRVPQCPSGRVYVLKFKAGSKRLFFWMQEPKTDQDEEHCRKVNEYLNNPPMPGALGASGSSGHELSALGGEGGLQSLLGNMSHSQLMQLIGPAGLGGLGGLGALTGPGLASLLGSSGPPGSSSSSSSRSQSAAVTPSSTTSSTRATPAPSAPAAASATSPSPAPSSGNGASTAASPTQPIQLSDLQSILATMNVPAGPAGGQQVDLASVLTPEIMAPILANADVQERLLPYLPSGESLPQTADEIQNTLTSPQFQQALGMFSAALASGQLGPLMCQFGLPAEAVEAANKGDVEAFAKAMQNNAKPEQKEGDTKDKKDEEEDMSLD [ADRM1] | 0.469 | -0.24 | 51.3 °C | 51.1 °C | 0.363 | -2.12
7 | MTTSHMNGHVTEESDSEVKNVDLASPEEHQKHREMAVDCPGDLGTRMMPIRRSAQLERIRQQQEDMRRRREEEGKKQELDLNSSMRLKKLAQIPPKTGIDNPMFDTEEGIVLESPHYAVKILEIEDLFSSLKHIQHTLVDSQSQEDISLLLQLVQNKDFQNAFKIHNAITVHMNKASPPFPLISNAQDLAQEVQTVLKPVHHKEGQELTALLNTPHIQALLLAHDKVAEQEMQLEPITDERVYESIGQYGGETVKIVRIEKARDIPLGATVRNEMDSVIISRIVKGGAAEKSGLLHEGDEVLEINGIEIRGKDVNEVFDLLSDMHGTLTFVLIPSQQIKPPPAKETVIHVKAHFDYDPSDDPYVPCRELGLSFQKGDILHVISQEDPNWWQAYREGDEDNQPLAGLVPGKSFQQQREAMKQTIEEDKEPEKSGKLWCAKKNKKKRKKVLYNANKNDDYDNEEILTYEEMSLYHQPANRKRPIILIGPQNCGQNELRQRLMNKEKDRFASAVPHTTRSRRDQEVAGRDYHFVSRQAFEADIAAGKFIEHGEFEKNLYGTSIDSVRQVINSGKICLLSLRTQSLKTLRNSDLKPYIIFIAPPSQERLRALLAKEGKNPKPEELREIIEKTREMEQNNGHYFDTAIVNSDLDKAYQELLRLINKLDTEPQWVPSTWLR [MPP5] | 0.0594 | 0.00906 | 48 °C | 50.7 °C | 0.62 | 2.56
8 | MTTSTLQKAIDLVTKATEEDKAKNYEEALRLYQHAVEYFLHAIKYEAHSDKAKESIRAKCVQYLDRAEKLKDYLRSKEKHGKKPVKENQSEGKGSDSDSEGDNPEKKKLQEQLMGAVVMEKPNIRWNDVAGLEGAKEALKEAVILPIKFPHLFTGKRTPWRGILLFGPPGTGKSYLAKAVATEANNSTFFSVSSSDLMSKWLGESEKLVKNLFELARQHKPSIIFIDEVDSLCGSRNENESEAARRIKTEFLVQMQGVGNNNDGTLVLGATNIPWVLDSAIRRRFEKRIYIPLPEEAARAQMFRLHLGSTPHNLTDANIHELARKTEGYSGADISIIVRDSLMQPVRKVQSATHFKKVCGPSRTNPSMMIDDLLTPCSPGDPGAMEMTWMDVPGDKLLEPVVCMSDMLRSLATTRPTVNADDLLKVKKFSEDFGQES [VPS4A] | 0.393 | -0.128 | 48.6 °C | 49.7 °C | 1.11 | 1.47
9 | MTVSGPGTPEPRPATPGASSVEQLRKEGNELFKCGDYGGALAAYTQALGLDATPQDQAVLHRNRAACHLKLEDYDKAETEASKAIEKDGGDVKALYRRSQALEKLGRLDQAVLDLQRCVSLEPKNKVFQEALRNIGGQIQEKVRYMSSTDAKVEQMFQILLDPEEKGTEKKQKASQNLVVLAREDAGAEKIFRSNGVQLLQRLLDMGETDLMLAALRTLVGICSEHQSRTVATLSILGTRRVVSILGVESQAVSLAACHLLQVMFDALKEGVKKGFRGKEGAIIVDPARELKVLISNLLDLLTEVGVSGQGRDNALTLLIKAVPRKSLKDPNNSLTLWVIDQGLKKILEVGGSLQDPPGELAVTANSRMSASILLSKLFDDLKCDAERENFHRLCENYIKSWFEGQGLAGKLRAIQTVSCLLQGPCDAGNRALELSGVMESVIALCASEQEEEQLVAVEALIHAAGKAKRASFITANGVSLLKDLYKCSEKDSIRIRALVGLCKLGSAGGTDFSMKQFAEGSTLKLAKQCRKWLCNDQIDAGTRRWAVEGLAYLTFDADVKEEFVEDAAALKALFQLSRLEERSVLFAVASALVNCTNSYDYEEPDPKMVELAKYAKQHVPEQHPKDKPSFVRARVKKLLAAGVVSAMVCMVKTESPVLTSSCRELLSRVFLALVEEVEDRGTVVAQGGGRALIPLALEGTDVGQTKAAQALAKLTITSNPEMTFPGERIYEVVRPLVSLLHLNCSGLQNFEALMALTNLAGISERLRQKILKEKAVPMIEGYMFEEHEMIRRAATECMCNLAMSKEVQDLFEAQGNDRLKLLVLYSGEDDELLQRAAAGGLAMLTSMRPTLCSRIPQVTTHWLEILQALLLSSNQELQHRGAVVVLNMVEASREIASTLMESEMMEILSVLAKGDHSPVTRAAAACLDKAVEYGLIQPNQDGE [UNC45A] | 0.2 | -0.111 | 48.6 °C | 48.8 °C | 0.271 | 1.37
10 | MVAVLGGRGVLRLRLLLSALKPGIHVPRAGPAAAFGTSVTSAKVAVNGVQLHYQQTGEGDHAVLLLPGMLGSGETDFGPQLKNLNKKLFTVVAWDPRGYGHSRPPDRDFPADFFERDAKDAVDLMKALKFKKVSLLGWSDGGITALIAAAKYPSYIHKMVIWGANAYVTDEDSMIYEGIRDVSKWSERTRKPLEALYGYDYFARTCEKWVDGIRQFKHLPDGNICRHLLPRVQCPALIVHGEKDPLVPRFHADFIHKHVKGSRLHLMPEGKHNLHLRFADEFNKLAEDFLQ [BPHL] | 0.0569 | -0.00389 | 52.7 °C | 52.4 °C | 0.683 | 0.206
11 | MVCGGFACSKNCLCALNLLYTLVSLLLIGIAAWGIGFGLISSLRVVGVVIAVGIFLFLIALVGLIGAVKHHQVLLFFYMIILLLVFIVQFSVSCACLALNQEQQGQLLEVGWNNTASARNDIQRNLNCCGFRSVNPNDTCLASCVKSDHSCSPCAPIIGEYAGEVLRFVGGIGLFFSFTEILGVWLTYRYRNQKDPRANPSAFL [TSPAN13] | 0.0697 | -0.273 | 57.7 °C | 57.6 °C | -0.55 | -1.07
